Test results from patent US7358040B2, “MRE 11: modulation of cellular proliferation” (Rigel Pharmaceuticals, Incorporated, priority 2001, dated 2008).

Experiments:
Format in all cases: cell-based
A549 tumor cells [1] = assay: overexpression / GFP positivity proliferation assay in A549 tumor cells
Excerpt: (§1) As described below, the present inventors identified MRE11 in a yeast two hybrid assay, using PCNA as bait. Another molecule, NBS1, was identified in the two-hybrid assay as a PCNA-binding protein, as NBS1 binds the mammalian homolog of yeast RAD50, which also binds to MRE11 (see, e.g., Petrini, Am. J Hum. Genet. 64:1264-1269 (1999); Kim et al., J. Biol. Chem. 271:29255-29264 (1996); see also GenBank Accession number XP—034864 for a protein sequence of human RAD50 and Accession number XM—034864 for a nucleic acid sequence of human RAD50; see also Example 1)). NBS1 therefore bound to the RAD50/MRE11 complex, as well as to PCNA. As shown in FIGS. 8-15, inhibition of MRE11 or overexpression of an MRE11 mutant is antiproliferative in tumor cells and HeLa cells but not in normal cells (using, e.g., GFP positivity assays, cell tracker assays, and antisense assays).
(§2) In another embodiment, MRE11 protein is expressed in a cell, and functional, e.g., physical and chemical or phenotypic, changes are assayed to identify MRE11 and modulators of cellular proliferation, e.g., tumor cell proliferation. Cells expressing MRE11 proteins can also be used in binding assays and enzymatic assays. Any suitable functional effect can be measured, as described herein. […]

HeLa cells [2] = assay: overexpression / GFP positivity proliferation assay in HeLa cells
Excerpt: as §1, §2

A549 tumor cells [3] = assay: cell tracker assay in A549 tumor cells
Excerpt: as §1, §2

A549 tumor cells [4] = assay: bleomycin chemosensitization study in A549 tumor cells
Excerpt: as §1

HeLa cells [5] = assay: bleomycin chemosensitization study in HeLa cells
Excerpt: as §1

normal HMEC cells = assay: bleomycin chemosensitization study in normal HMEC cells
Excerpt: as §1

normal cells [6] = assay: overexpression proliferation assay in normal cells
Excerpt: as §1, §2

normal cells [7] = assay: cell tracker assay in normal cells
Excerpt: as §1, §2

B1: GFP-fused MRE11 H129N mutant: GFP-fused dominant negative H129N mutant of MRE11 nuclease, overexpressed in cells for target validation (protein, UniProt P49959 2-708, looked up, variant H129N)
Double-strand break repair …: STADALDDENTFKILVATDIHLGFMEKDAVRGNDTFVTLDEILRLAQENEVDFILLGGDLFHENKPSRKTLHTCLELLRKYCMGDRPVQFEILSDQSVNFGFSKFPWVNYQDGNLNISIPVFSIHGNNDDPTGADALCALDILSCAGFVNHFGRSMSVEKIDISPVLLQKGSTKIALYGLGSIPDERLYRMFVNKKVTMLRPKEDENSWFNLFVIHQNRSKHGSTNFIPEQFLDDFIDLVIWGHEHECKIAPTKNEQQLFYISQPGSSVVTSLSPGEAVKKHVGLLRIKGRKMNMHKIPLHTVRQFFMEDIVLANHPDIFNPDNPKVTQAIQSFCLEKIEEMLENAERERLGNSHQPEKPLVRLRVDYSGGFEPFSVLRFSQKFVDRVANPKDIIHFFRHREQKEKTGEEINFGKLITKPSEGTTLRVEDLVKQYFQTAEKNVQLSLLTERGMGEAVQEFVDKEEKDAIEELVKYQLEKTQRFLKERHIDALEDKIDEEVRRFRETRQKNTNEEDDEVREAMTRARALRSQSEESASAFSADDLMSIDLAEQMANDSDDSISAATNKGRGRGRGRRGGRGQNSASRGGSQRGRADTGLETSTRSRNSKTAVSASRNMSIIDAFKSTRQQPSRNVTTKNYSEVIEVDESDVEEDIFPTTSKTDQRWSSTSSSKIMSQSQVSKGVDFESSEDDDDDPFMNTSSLRRNRR
modifications: GFP fusion
notes: GFP-fused dominant negative H129N mutant of MRE11 nuclease, overexpressed in cells for target validation
For B1, the “antiproliferative activity on overexpression” value (A549 tumor cells [1]) was “antiproliferative”, the “antiproliferative activity on overexpression” value (HeLa cells [2]) was “antiproliferative” and the “antiproliferative activity, cell tracker assay” value (A549 tumor cells [3]) was “antiproliferative”.

B2: GFP-MRE11 H217Y mutant: GFP-fused MRE11 H217Y mutant overexpressed in cells (protein, UniProt P49959 2-708, looked up, variant H217Y)
Double-strand break repair …: STADALDDENTFKILVATDIHLGFMEKDAVRGNDTFVTLDEILRLAQENEVDFILLGGDLFHENKPSRKTLHTCLELLRKYCMGDRPVQFEILSDQSVNFGFSKFPWVNYQDGNLNISIPVFSIHGNHDDPTGADALCALDILSCAGFVNHFGRSMSVEKIDISPVLLQKGSTKIALYGLGSIPDERLYRMFVNKKVTMLRPKEDENSWFNLFVIYQNRSKHGSTNFIPEQFLDDFIDLVIWGHEHECKIAPTKNEQQLFYISQPGSSVVTSLSPGEAVKKHVGLLRIKGRKMNMHKIPLHTVRQFFMEDIVLANHPDIFNPDNPKVTQAIQSFCLEKIEEMLENAERERLGNSHQPEKPLVRLRVDYSGGFEPFSVLRFSQKFVDRVANPKDIIHFFRHREQKEKTGEEINFGKLITKPSEGTTLRVEDLVKQYFQTAEKNVQLSLLTERGMGEAVQEFVDKEEKDAIEELVKYQLEKTQRFLKERHIDALEDKIDEEVRRFRETRQKNTNEEDDEVREAMTRARALRSQSEESASAFSADDLMSIDLAEQMANDSDDSISAATNKGRGRGRGRRGGRGQNSASRGGSQRGRADTGLETSTRSRNSKTAVSASRNMSIIDAFKSTRQQPSRNVTTKNYSEVIEVDESDVEEDIFPTTSKTDQRWSSTSSSKIMSQSQVSKGVDFESSEDDDDDPFMNTSSLRRNRR
modifications: GFP fusion
notes: GFP-fused MRE11 H217Y mutant overexpressed in cells
For B2, the “sensitivity to bleomycin treatment on overexpression” value (shortened to “sensitivity to bleomycin treatment”) (A549 tumor cells [4]; A549 tumor cells) was “enhances sensitivity”, the “sensitivity to bleomycin treatment” value (HeLa cells [5]) was “enhances sensitivity” and the “sensitivity to bleomycin treatment” value (normal HMEC cells) was “does not enhance sensitivity”.

B3: MRE11 H129N mutant: MRE11 H129N mutant expressed using IRES GFP (not fused) (protein, UniProt P49959 2-708, looked up, variant H129N)
Double-strand break repair …: STADALDDENTFKILVATDIHLGFMEKDAVRGNDTFVTLDEILRLAQENEVDFILLGGDLFHENKPSRKTLHTCLELLRKYCMGDRPVQFEILSDQSVNFGFSKFPWVNYQDGNLNISIPVFSIHGNNDDPTGADALCALDILSCAGFVNHFGRSMSVEKIDISPVLLQKGSTKIALYGLGSIPDERLYRMFVNKKVTMLRPKEDENSWFNLFVIHQNRSKHGSTNFIPEQFLDDFIDLVIWGHEHECKIAPTKNEQQLFYISQPGSSVVTSLSPGEAVKKHVGLLRIKGRKMNMHKIPLHTVRQFFMEDIVLANHPDIFNPDNPKVTQAIQSFCLEKIEEMLENAERERLGNSHQPEKPLVRLRVDYSGGFEPFSVLRFSQKFVDRVANPKDIIHFFRHREQKEKTGEEINFGKLITKPSEGTTLRVEDLVKQYFQTAEKNVQLSLLTERGMGEAVQEFVDKEEKDAIEELVKYQLEKTQRFLKERHIDALEDKIDEEVRRFRETRQKNTNEEDDEVREAMTRARALRSQSEESASAFSADDLMSIDLAEQMANDSDDSISAATNKGRGRGRGRRGGRGQNSASRGGSQRGRADTGLETSTRSRNSKTAVSASRNMSIIDAFKSTRQQPSRNVTTKNYSEVIEVDESDVEEDIFPTTSKTDQRWSSTSSSKIMSQSQVSKGVDFESSEDDDDDPFMNTSSLRRNRR
With B3 the “antiproliferative activity, cell tracker assay” value (A549 tumor cells [3]) was “antiproliferative”.

B4: MRE11 wild type: wild-type human MRE11 protein (SEQ ID NO:2) overexpressed in cells (protein, listed as Homo sapiens)
chain: MSTADALDDENTFKILVATDIHLGFMEKDAVRGNDTFVTLDEILRLAQENEVDFILLGGDLFHENKPSRKTLHTCLELLRKYCMGDRPVQFEILSDQSVNFGFSKFPWVNYQDGNLNISIPVFSIHGNHDDPTGADALCALDILSCAGFVNHFGRSMSVEKIDISPVLLQKGSTKIALYGLGSIPDERLYRMFVNKKVTMLRPKEDENSWFNLFVIHQNRSKHGSTNFIPEQFLDDFIDLVIWGHEHECKIAPTKNEQQLFYISQPGSSVVTSLSPGEAVKKHVGLLRIKGRKMNMHKIPLHTVRQFFMEDIVLANHPDIFNPDNPKVTQAIQSFCLEKIEEMLENAERERLGNSHQPEKPLVRLRVDYSGGFEPFSVLRFSQKFVDRVANPKDIIHFFRHREQKEKTGEEINFGKLITKPSEGTTLRVEDLVKQYFQTAEKNVQLSLLTERGMGEAVQEFVDKEEKDAIEELVKYQLEKTQRFLKERHIDALEDKIDEEVRRFRETRQKNTNEEDDEVREAMTRARALRSQSEESASAFSADDLMSIDLAEQMANDSDDSISAATNKGRGRGRGRRGGRGQNSASRGGSQRGRADTGLETSTRSRNSKTAVSASRNMSIIDAFKSTRQQPSRNVTTKNYSEVIEVDESDVEEDIFPTTSKTDQRWSSTSSSKIMSQSQVSKGVDFESSEDDDDDPFMNTSSLRRNRR
modifications: human MRE11 meiotic recombination 11 homolog A
B4 was tested, and the “antiproliferative activity on overexpression” value (normal cells [6]) was “not antiproliferative”, the “antiproliferative activity, cell tracker assay” value (normal cells [7]) was “no antiproliferative activity” and the “selective sensitization after bleomycin treatment” value (A549 tumor cells [4]; tumor cells expressing the protein, 48 hours after bleomycin treatment) was “no selective sensitization”.
